In publication PMC6704074, “Structural basis for lamin assembly at the molecular level” (Nature Communications, 2019):
Several values for one entry are separate records, joined by “and”; a condition that tells them apart may be missing. Equal entries are not always repeated. Each block holds one binder with its values, some of them ahead of it.

B3: lamin 300 fragment, wild type (human lamin A/C residues 1–300), His tag cleaved (domain or fragment, UniProt P02545 1-300, looked up)
chain: METPSQRRATRSGAQASSTPLSPTRITRLQEKEDLQELNDRLAVYIDRVRSLETENAGLRLRITESEEVVSREVSGIKAAYEAELGDARKTLDSVAKERARLQLELSKVREEFKELKARNTKKEGDLIAAQARLKDLEALLNSKEAALSTALSEKRTLEGELHDLRGQVAKLEAALGEAKKQLQDEMLRRVDAENRLQTMKEELDFQKNIYSEELRETKRRHETRLVEIDNGKQREFESRLADALQELRAQHEDQVEQYKKELEKTYSAKLDNARQSAERNSNLVGAAHEELQQSRIRID
notes: lamin A/C, human, residues 1-300; Mostly a dimer by SEC-MALS; also called WT; lamin 1–300 fragment; source: E. coli BL21 (DE3), purified (Ni-NTA, TEV, HiTrap Q, SEC); not shown: His tag, N-terminal, cleaved
B5: lamin 300 fragment A146C mutant (human lamin A/C residues 1–300), His tag cleaved (domain or fragment, UniProt P02545 1-300, looked up)
chain: METPSQRRATRSGAQASSTPLSPTRITRLQEKEDLQELNDRLAVYIDRVRSLETENAGLRLRITESEEVVSREVSGIKAAYEAELGDARKTLDSVAKERARLQLELSKVREEFKELKARNTKKEGDLIAAQARLKDLEALLNSKECALSTALSEKRTLEGELHDLRGQVAKLEAALGEAKKQLQDEMLRRVDAENRLQTMKEELDFQKNIYSEELRETKRRHETRLVEIDNGKQREFESRLADALQELRAQHEDQVEQYKKELEKTYSAKLDNARQSAERNSNLVGAAHEELQQSRIRID
modifications: disulfide bond through Cys146 in the non-reduced protein
notes: lamin A/C, human, residues 1-300; Non-reduced: partly a disulfide-linked tetramer; with TCEP: dimer (A146C^R); also called lamin 300 A146C; A146C variant; source: E. coli BL21 (DE3), purified (Ni-NTA, TEV, HiTrap Q, SEC); not shown: His tag, N-terminal, cleaved

How the values were obtained:
[1] = target: B3; assay: cross-linking; sulfo-SMPB (0-250 μM) added to 20 μM lamin 300 and 286-400 R388C, 1 h, 20 mM HEPES pH 7.5, 50 mM NaCl, 1 mM EDTA; SDS-PAGE bands digested with chymotrypsin, MS/MS; settings: both partners purified
[2] = target: the molecule itself; assay: as above
[3] = target: B5; assay: pull-down; lamin 300 A146C coupled to CNBr-activated Sepharose; fragments at 66 μM; 20 mM Tris-HCl pH 8.0, 150 mM NaCl, non-reducing; Tris-blocked resin as control; SDS-PAGE; settings: both partners purified
[4] = target: T1, His-tagged lamin 300 fragment, wild type (human lamin A/C residues 1–300) (human, UniProt P02545 1-300); assay: pull-down; His-tagged lamin 300 (wild type, Y45C, L59R) on Ni-NTA resin; lamin 250-400 as prey; 20 mM Tris-HCl pH 8.0 with 50 or 150 mM NaCl; SDS-PAGE; settings: both partners purified
T1 construct: lamin A/C, human, residues 1-300; The plasmid also encodes a TEV site between the tag and the lamin residues (pProEx-HTa); also called His-lamin; His-tagged wild-type lamin 300 fragment; source: E. coli BL21 (DE3), purified (Ni-NTA, HiTrap Q, SEC; no TEV treatment); not shown: His tag, N-terminal, kept
T1 sequence (looked up): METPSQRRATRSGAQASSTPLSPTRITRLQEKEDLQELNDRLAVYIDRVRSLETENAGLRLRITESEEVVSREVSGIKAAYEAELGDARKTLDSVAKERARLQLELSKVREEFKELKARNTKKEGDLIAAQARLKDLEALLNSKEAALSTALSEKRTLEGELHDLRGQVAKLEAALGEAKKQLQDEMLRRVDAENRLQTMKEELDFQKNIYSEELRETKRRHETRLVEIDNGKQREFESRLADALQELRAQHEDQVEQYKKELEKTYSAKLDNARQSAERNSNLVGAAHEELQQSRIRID

[5] = target: the molecule itself; assay: SEC-MALS; 2.5 mg/ml, Superdex 200 Increase 5/150 GL, non-reducing buffer Tris-HCl pH 8.0, 150 mM NaCl
[6] = target: B5; assay: pull-down; His-F3 on Ni-NTA resin as bait; tag-cleaved lamin 300 proteins as prey; 20 mM Tris-HCl pH 8.0 with 150 or 50 mM NaCl, room temperature 30 min, wash with 20 mM imidazole; 2 mM TCEP for reduced A146C; SDS-PAGE; settings: both partners purified
[7] = target: B3; assay: as above; settings: both partners purified
[8] = target: T2, His-tagged lamin 300 fragment L59R mutant (human, UniProt P02545 1-300, L59R); assay: ITC; His-lamin 300 (20 μM) in the cell, His-250-400 (160 μM) in the syringe; PBS, 25 °C, 19 injections of 2 μL; settings: both partners purified
T2 construct: lamin A/C, human, residues 1-300, with the dilated cardiomyopathy mutation L59R; source: E. coli BL21 (DE3), purified (Ni-NTA, HiTrap Q, SEC; no TEV treatment)
T2 sequence (looked up): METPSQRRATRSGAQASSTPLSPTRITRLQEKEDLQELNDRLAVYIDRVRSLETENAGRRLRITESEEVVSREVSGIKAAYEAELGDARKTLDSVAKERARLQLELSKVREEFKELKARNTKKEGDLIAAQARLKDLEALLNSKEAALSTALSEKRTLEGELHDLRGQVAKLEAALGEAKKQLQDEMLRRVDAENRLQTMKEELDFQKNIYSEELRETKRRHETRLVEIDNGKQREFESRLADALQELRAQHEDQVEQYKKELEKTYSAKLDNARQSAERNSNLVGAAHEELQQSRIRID

[9] = target: T1, His-tagged lamin 300 fragment, wild …; assay: as above; settings: both partners purified
[10] = target: the molecule itself; assay: crystal structure; SeMet-labelled lamin 1-300, His tag cleaved, 7 mg/mL; 0.1 M Tris-HCl pH 8.5, 0.9 M LiCl, 7% PEG 8000, 14 °C; SAD, 3.2 Å

binding result [1]: binds
B1: lamin 286–400 R388C mutant (domain or fragment, human, UniProt P02545 286-400, looked up)
chain: GAAHEELQQSRIRIDSLSAQLSQLQKQLAAKEAKLRDLEDSLARERDTSRRLLAEKEREMAEMRARMQQQLDEYQELLDIKLALDMEIHAYRKLLEGEEERLCLSPSPTSQRSRG
notes: lamin A/C, human, residues 286-400; runs at 14 kDa on SDS-PAGE; Reduced with 2 mM DTT and desalted before cross-linking; also called coil 2 (286–400) R388C; coil 2 R388C; source: E. coli BL21 (DE3), purified
binding result [2]: binds

binding result [3]: binds
binding result [4]: binds
B2: lamin 250–400 fragment (F3), without His tag (domain or fragment, human, UniProt P02545 250-400, looked up)
chain: AQHEDQVEQYKKELEKTYSAKLDNARQSAERNSNLVGAAHEELQQSRIRIDSLSAQLSQLQKQLAAKEAKLRDLEDSLARERDTSRRLLAEKEREMAEMRARMQQQLDEYQELLDIKLALDMEIHAYRKLLEGEEERLRLSPSPTSQRSRG
notes: lamin A/C, human, residues 250-400 (coil 2, residues 240-385, without its N-terminal ten residues); not called His-tagged there, so by the common procedure the tag would be cleaved; also called coil 2 fragment; C-terminal part of coil 2; source: E. coli BL21 (DE3), purified (Ni-NTA, TEV, HiTrap Q, SEC)

Binder: B3
stoichiometry N [5]: 2

binding result [6]: binds
binding result [7]: binds
fold higher binding affinity than the wild type (from KD values) [8]: ~40 fold
binding result [9]: binds
B4: His-F3 (His-tagged lamin A/C residues 250–400) (domain or fragment, human, UniProt P02545 250-400, looked up)
chain: AQHEDQVEQYKKELEKTYSAKLDNARQSAERNSNLVGAAHEELQQSRIRIDSLSAQLSQLQKQLAAKEAKLRDLEDSLARERDTSRRLLAEKEREMAEMRARMQQQLDEYQELLDIKLALDMEIHAYRKLLEGEEERLRLSPSPTSQRSRG
notes: lamin A/C, human, residues 250-400; The plasmid also encodes a TEV site between the tag and the lamin residues (pProEx-HTa); also called his-tagged 250–400 fragment; coil 2 fragment; source: E. coli BL21 (DE3), purified (Ni-NTA, HiTrap Q, SEC; no TEV treatment); not shown: His tag, N-terminal, kept

Binder: B5
stoichiometry N [5]: 4 and 2

B6: selenomethionine-labelled lamin A/C fragment (residues 1–300), His tag cleaved (domain or fragment, human, UniProt P02545 1-300, looked up)
chain: METPSQRRATRSGAQASSTPLSPTRITRLQEKEDLQELNDRLAVYIDRVRSLETENAGLRLRITESEEVVSREVSGIKAAYEAELGDARKTLDSVAKERARLQLELSKVREEFKELKARNTKKEGDLIAAQARLKDLEALLNSKEAALSTALSEKRTLEGELHDLRGQVAKLEAALGEAKKQLQDEMLRRVDAENRLQTMKEELDFQKNIYSEELRETKRRHETRLVEIDNGKQREFESRLADALQELRAQHEDQVEQYKKELEKTYSAKLDNARQSAERNSNLVGAAHEELQQSRIRID
modifications: selenomethionine-labelled
notes: lamin A/C, human, residues 1-300 (head, coil 1a, L1, coil 1b, L12, first half of coil 2); Four protomers (chains A-D) in the asymmetric unit: two parallel coiled-coil dimers (A:B, C:D) packed anti-parallel; also called lamin 300 fragment; N-terminal half fragment of human lamin A/C; source: E. coli B834 (DE3), M9 medium with L-(+)-selenomethionine, purified (Ni-NTA, TEV, HiTrap Q, SEC); not …
binding result [10]: binds
